# In patent publication US20240109962A1 (SPARX BIOSCIENCE, published 2024):
# Where two headings read alike, the source gives them in different places.
# Assays:
# [1] = target: LILRB2 antigen of the ELISA of Table 5 (format not specified) (UniProt Q8N423 22-460, limits assumed); assay: ELISA, antibody titration
# [2] = target: T1, human LILRB3 expressed on 293T cells (human, UniProt O75022 24-631); assay: cell ELISA on fixed 293T transfectants, OD490
# T1 construct: whole, on cells
# Protocol: The cells were then immobilized with glutaraldehyde in the presence of 5% defatted milk at room temperature for 2 hours. An anti-LILRB2 antibody (2 μg/ml) was added to each well and incubated at room temperature for 2 hours. An HRP-labelled goat anti-mouse secondary antibody was then added into each well and incubated at room temperature for one hour. An HRP substrate, o-phenylenediamine dihydrochloride (OPD) was then added to each well. The plate was incubated at room temperature for 15 min to allow color development and OD₄₉₀ values were determined.
# LILRB3-His = target: T2, LILRB3-His; assay: ELISA on recombinant His-tagged protein, OD450
# T2 construct: also called His-tagged LILRB3; recombinant LILRB3 protein
# [3] = target: T3, human LILRB1 expressed on 293T cells (human, UniProt Q8NHL6 24-650); assay: flow cytometry on 293T transfectants, MFI
# T3 construct: whole, on cells
# T3 sequence (Q8NHL6 24-650): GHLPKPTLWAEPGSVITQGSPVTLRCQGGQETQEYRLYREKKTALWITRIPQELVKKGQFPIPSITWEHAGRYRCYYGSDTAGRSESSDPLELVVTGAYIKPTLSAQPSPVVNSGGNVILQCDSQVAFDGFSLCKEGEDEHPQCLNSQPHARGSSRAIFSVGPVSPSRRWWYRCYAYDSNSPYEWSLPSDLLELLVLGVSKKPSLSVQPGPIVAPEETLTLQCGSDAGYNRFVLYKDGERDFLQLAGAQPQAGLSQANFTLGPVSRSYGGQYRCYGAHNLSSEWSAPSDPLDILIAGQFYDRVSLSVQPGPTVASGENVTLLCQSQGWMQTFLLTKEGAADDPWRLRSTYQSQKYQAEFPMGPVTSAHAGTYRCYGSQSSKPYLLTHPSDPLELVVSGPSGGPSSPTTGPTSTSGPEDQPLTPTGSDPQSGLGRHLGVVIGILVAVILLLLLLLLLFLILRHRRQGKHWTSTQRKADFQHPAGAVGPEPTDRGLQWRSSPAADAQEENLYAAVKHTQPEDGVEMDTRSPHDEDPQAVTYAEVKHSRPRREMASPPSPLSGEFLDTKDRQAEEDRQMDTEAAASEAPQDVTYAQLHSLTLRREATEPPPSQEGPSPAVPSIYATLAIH
# Protocol: (§1) The cells were then immobilized with glutaraldehyde in the presence of 5% defatted milk at room temperature for 2 hours. An anti-LILRB2 antibody (5 μg/ml) was added to each well and incubated at room temperature for 1 hours. An Alex Flour®-labelled goat anti-mouse secondary antibody (1:2,000 dilution) was then added into each well and incubated at room temperature for 30′. The cells were washed twice with PBS after the staining. Fluorescence intensities (MFI) were measured.
# [4] = target: T1, human LILRB3 expressed on 293T cells; assay: flow cytometry on 293T transfectants, MFI
# Protocol: as §1
# [5] = target: T4, His-tagged human LILRB2 polypeptide (human, UniProt Q8N423 22-460); assay: SPR, antibody on CM5 chip, His-LILRB2 analyte, 1:1 model
# T4 construct: SPR analyte; also called His-tagged human LILBR2 polypeptide; not shown: His tag
# T4 sequence (Q8N423 22-460 limits assumed): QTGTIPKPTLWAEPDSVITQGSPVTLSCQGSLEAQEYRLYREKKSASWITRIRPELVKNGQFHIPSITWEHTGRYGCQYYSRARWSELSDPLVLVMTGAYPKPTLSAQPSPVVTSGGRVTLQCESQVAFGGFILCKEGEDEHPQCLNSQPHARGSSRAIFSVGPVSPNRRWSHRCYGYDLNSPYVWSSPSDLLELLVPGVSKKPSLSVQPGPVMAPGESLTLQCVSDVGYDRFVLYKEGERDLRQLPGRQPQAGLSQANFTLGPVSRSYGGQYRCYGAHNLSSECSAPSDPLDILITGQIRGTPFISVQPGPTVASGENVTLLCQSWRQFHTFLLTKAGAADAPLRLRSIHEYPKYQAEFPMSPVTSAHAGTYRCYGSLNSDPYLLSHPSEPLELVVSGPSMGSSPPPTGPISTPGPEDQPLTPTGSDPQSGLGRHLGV
# Protocol: Surface plasmon resonance (SPR) was used to examine binding activities of exemplary anti-LILBR2 antibodies disclosed herein. Briefly, the anti-LILBR2 antibody was diluted in a coating buffer to a concentration of 30 μg/ml, loaded onto CM5 chips at 10 μl/min to allow coating of the antibody on the surface of the CM5 chip. […] Binding affinity was measured based on the 1:1 binding model.
# LILRB1-His = target: T5, LILRB1-His; assay: ELISA on recombinant His-tagged protein, OD450
# T5 construct: also called His-tagged LILRB1; recombinant LILRB1 protein
# T5 sequence (chain, as listed by the source limits assumed): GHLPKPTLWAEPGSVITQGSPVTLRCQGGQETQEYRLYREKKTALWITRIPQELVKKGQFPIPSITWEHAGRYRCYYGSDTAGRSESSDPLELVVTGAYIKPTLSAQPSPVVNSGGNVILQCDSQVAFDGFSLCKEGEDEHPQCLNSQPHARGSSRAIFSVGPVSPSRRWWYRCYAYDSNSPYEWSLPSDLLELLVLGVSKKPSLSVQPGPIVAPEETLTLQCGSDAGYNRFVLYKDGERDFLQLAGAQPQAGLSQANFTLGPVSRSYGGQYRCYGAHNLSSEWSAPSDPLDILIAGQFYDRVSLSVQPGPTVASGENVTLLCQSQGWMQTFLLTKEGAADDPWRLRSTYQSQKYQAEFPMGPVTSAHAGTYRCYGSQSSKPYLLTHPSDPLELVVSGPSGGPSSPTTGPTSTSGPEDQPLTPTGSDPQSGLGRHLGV
# [6] = target: T6, human LILRB2 expressed on cells (293T-LILRB2, CHO-K1-LILRB2) (human, UniProt Q8N423 22-597); assay: flow cytometry on 293T-LILRB2 cells, serial dilution, APC anti-human IgG; fit table under the graph
# T6 construct: whole, on cells; the cell line is named under assay; also called HEK293T-LILRB2
# T6 sequence (Q8N423 22-597): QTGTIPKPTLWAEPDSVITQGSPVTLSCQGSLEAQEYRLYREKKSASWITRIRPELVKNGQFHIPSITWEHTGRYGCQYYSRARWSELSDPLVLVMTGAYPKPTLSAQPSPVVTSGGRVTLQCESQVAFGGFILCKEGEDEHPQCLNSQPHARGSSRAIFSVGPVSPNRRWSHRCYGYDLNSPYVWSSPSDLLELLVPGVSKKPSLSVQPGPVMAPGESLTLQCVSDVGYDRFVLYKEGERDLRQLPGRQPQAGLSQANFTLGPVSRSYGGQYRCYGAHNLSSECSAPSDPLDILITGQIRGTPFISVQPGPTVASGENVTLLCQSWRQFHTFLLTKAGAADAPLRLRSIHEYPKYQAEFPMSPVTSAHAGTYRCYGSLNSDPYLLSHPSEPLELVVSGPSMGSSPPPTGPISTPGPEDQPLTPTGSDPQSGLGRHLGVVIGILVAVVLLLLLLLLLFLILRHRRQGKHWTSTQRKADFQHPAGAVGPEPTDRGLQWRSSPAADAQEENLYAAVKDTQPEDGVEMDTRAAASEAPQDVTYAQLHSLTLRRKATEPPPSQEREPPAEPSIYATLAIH
# Source text: (§2) The cells were washed and then subject to flow cytometry to measure levels of fluorescent signals.
# [7] = target: T6, human LILRB2 expressed on cells …; assay: as above; remark: listed apart in the source
# Source text: as §2
# [8] = target: T6, human LILRB2 expressed on cells …; assay: flow cytometry, blockade of His-tagged HLA-G tetramer binding to 293T-LILRB2 cells; fit table under the graph
# Protocol: Serial diluted humanized LILRB2 antibodies were then added to the mixture and incubated at room temperature for another 45 minutes. The binding of HLA-G/LILRB2 was detected afterwards using a secondary PE-labeled anti-His tag antibody via flow cytometry.
# [9] = target: T6, human LILRB2 expressed on cells …; assay: flow cytometry on 293T-LILRB2 cells, serial dilution, APC anti-human IgG; fit table under the graph; remark: listed apart in the source
# Source text: as §2
# Sequence of LILRB2 antigen of the ELISA of Table 5 (format not specified) (Q8N423 22-460 limits assumed): as the sequence (Q8N423 22-460 limits assumed) above
Binder,Kd [1],binding result (LILRB3-His),binding result [3],binding result [4],IC50 [8],Span [8],further results
"Antibody 10B11 (antibody, V domains shown, Mouse hybridoma mAb purified from ascites) VH: EIQLQQSGPELVKPGASVKVSCKASGNSFTDNNIYWVKQSHGESLEWIGYIDPFNGRTTYNQKFKGKATLTVDKSSSTAFMHLNSLTSGDSAVYYCARGDYFNYWGQGTTLTVSS VL: EIQMTQTTSSLSASLGDRVTISCSASQGINNYLNWFQQKSDGTVKLLIYYTSSLHSGVPSRFSGSGSGTDYSLTISNLEPEDIAIYYCQQYSNLPFTFGGGTELEIK",0.195 nM,no binding,,,,,binding result [2]: no binding (tested: 2 µg/ml)
"Antibody 4A9 (antibody, V domains shown, Mouse hybridoma mAb purified from ascites) VH: EIQLQQSGPELVKPGASVKVSCKASGSSFTDYNMYWVKQIHGKSLDWIGYIDPYNGRTTYNQKFKGKATLTVDKSSSTAFMHLNSLTSEDSAVYYCAGGDYFDYWGHGTSLTVSS VL: EIQMTQTTSSLSASLGDRVTISCSASQGISNYLNWFQQKPDGTVKLLIYYTSTLHSGVPSRFSGSGSGTDFSLTISNLDPEDFATYYCQQYSNLPYTFGGGTKLEIK",0.216 nM,no binding,,,,,binding result [2]: no binding (tested: 2 µg/ml)
"Antibody 11D9 (antibody, V domains shown, Mouse hybridoma mAb purified from ascites) VH: EIQLQQSGPELVKPGASVKLSCKASGYAFTTYNMYWVKQSPGKSLEWIGYIDPYNGGATYNLKFKGKATLTVDKSSSAAYMHLNGLTSEDSAVYYCAGGDYFNYWGQGTILTVSS VL: DIQMTQTTSSLSASLGDRVTISCRASQVINNYLNWFQQKPDGTVKLLIYYTSTLHSGVPSRFSGSGSGTDYSLTISNLEPEDFATYYCQQYSTLPYTFGGGTKLEIK",1.43 nM,no binding,,,,,binding result [2]: no binding (tested: 2 µg/ml)
"Antibody 7G4 (antibody, V domains shown, Mouse hybridoma mAb purified from ascites) VH: QVQLKQSGPGLVQPSQSLSITCTVSGFSLATYGVHWVRQSPGKGLEWLGVMWRDGSTDYNAVFMSRLSITKDDSKSQVFFKMNSLQADDTAIYYCAKNPYLYGSSHYYAMDYWGQGTSVTVSS VL: DIVMTQSPSSLSVSAGEKVTMSCKSSQSLLNSENQKNYLAWYQQKPGQPPKLLIYGASTRESGVPDRFTGSGSGTDFTLTISSVQAEDLAVYYCQNDHIYPFTFGSGTKLEIK",1.53 nM,,no binding (tested: 5 µg/ml),no binding (tested: 5 µg/ml),,,Kd [5]: 1.57 nM; koff [5]: 0.000677 s⁻¹; kon [5]: 432000 M⁻¹ s⁻¹
"Antibody 2F1 (antibody, V domains shown, Mouse hybridoma mAb purified from ascites) VH: EVKLEESGGGLVQPGGSMKLSCAASGFTFSDAWMDWVRQSPKKGLEWVAEIRSKSNNHTTYYAESVKGRFTISRDDSKSSVYLQMNSLRAEDTGIYYCTRDWLTYWGQGTLVTVSA VL: DIVLTQSPASLAVSLGQRATISCRASKSVSTSGYSYMNWYQQKPGQPPKLLIYLASNLESGVPARFSGSGSGTDFTLNIHPVEEEDAATYYCQHSRELPLTFGAGTKLELK",2.18 nM,,no binding (tested: 5 µg/ml),no binding (tested: 5 µg/ml),,,
"chimeric 11B12 (antibody, V domains shown) VH: DVQLQESGPGLVKPSQSLSLTCSVTGYSITSGYYWNWIRQFPGNKLEWMGYISYDGNNNYNPSLKNRISITRDTSKNQFFLKLNSVTTEDTATYYCAREESTMITTAWFAYWGQGTLVTVSA VL: DIQMTQSPASLSVSVGETVTITCRASENIYSNLAWYQQKQGKSPQLLVYGATNLADGVPSRFSGSGSGTQYSLKINSLQSEDFGSYFCQHFWDTPYTFGGGTKLEIK",,,,,,,Bmax [6]: 582000 RFU; Kd [6]: 0.171 nM
"h#2G3 (antibody, V domains shown, also called Antibody h#2G3) VH: EVQLVESGGGLVQPGGSLRLSCAVSGYSITSGYYWNWIRQAPGKGLEWVAYISYDGNNNYNPSLKNRFTISRDTSKNTVYLQMNSLRAEDTAVYYCAREESTMITTAWFAYWGQGTLVTVSS VL: DIQLTQSPSSLSASVGDRVTITCRASENIYSNLAWYQQKPGKAPKLLIYGATNLASGVPSRFSGSGSGTDYTLTISSLQPEDFATYYCQHFWDTPYTFGQGTKVEIK",,,,,,,Bmax [7]: 683000 RFU; Kd [7]: 0.536 nM

# Now from value to binder, other results behind:
Kd [1],binding result (LILRB3-His),binding result [3],binding result [4],IC50 [8],Span [8],Binder,further results
0.804 nM,no binding,no binding (tested: 5 µg/ml),no binding (tested: 5 µg/ml),,,"Antibody 14C11 (antibody, V domains shown, Mouse hybridoma mAb purified from ascites) VH: EVQLQQSGPDLVKPGASVKISCKASGYIFTDFNMHWVKQSHGKSLEWIGYIYPFNGGTGYNQKFENKATLTVDNSSSTAYMEVRSLTSEDSAVYYCARRGGRGHFDYWGQGTTLTVSS VL: DIQMTQSPASLSASVGETVTVTCRASGNIHNYLAWYQQKQGKSPQLLVYNAKTLADGVPSRFSGSGSGTQFSLKINSLQPEDFGSYYCQHFWNTPFTFGSGTKLEIK",Kd [5]: 0.962 nM; koff [5]: 0.00025 s⁻¹; kon [5]: 260000 M⁻¹ s⁻¹
4.37 nM,,no binding (tested: 5 µg/ml),no binding (tested: 5 µg/ml),,,"Antibody 12D8 (antibody, V domains shown, Mouse hybridoma mAb purified from ascites) VH: QVQLRQSGPGLVQPSQSLSITCTVSGFSLTSYGVHWVRQSPGKGLEWLGVIWSGGITDYNAAFISRLSISKDNSKSQVFFRMNSLQTNDTAIYYCAREIYGNPDYWGQGTTLTVSS VL: DIVMTQSHKFMSTSVGDRVSITCKASQDVSIAVAWFQQKPGQSPKLLIYSASYRYTGVPDRFSGSGSGTDFTFTISSVQAEDLAVYYCQQHYSTPRTFGGGTKLEIK",binding result (LILRB1-His): no binding; Kd [5]: 0.227 nM; koff [5]: 0.00014 s⁻¹; kon [5]: 618000 M⁻¹ s⁻¹
,,,,0.56 nM,6960 RFU,"Antibody h#2C1 (antibody, V domains shown, Humanized variant of 11B12) VH: EVQLVESGGGLVQPGGSLRLSCAVSGYSITSGYYWNWVRQAPGKGLEWVAYISYDGNNNYNPSLKNRFTISRDTSKNTFYLQMNSLRAEDTAVYYCAREESTMITTAWFAYWGQGTLVTVSS VL: DIQMTQSPSSLSASVGDRVTITCRASENIYSNLAWYQQKPGKAPKLLIYGATNLASGVPSRFSGSGSGTDYTLTISSLQPEDFATYYCQHFWDTPYTFGQGTKVEIK",Bmax [7]: 684000 RFU; Kd [7]: 0.394 nM
,,,,0.429 nM,7190 RFU,"Antibody h#2D4 (antibody, V domains shown, Humanized variant of 11B12) VH: EVQLVESGGGLVQPGGSLRLSCAVSGYSITSGYYWNWVRQAPGKGLEWVAYISYDGNNNYNPSLKNRFTISRDTSKNTFYLQMNSLRAEDTAVYYCVREESTMITTAWFAYWGQGTLVTVSS VL: DIQMTQSPSSLSASVGDRVTITCRASENIYSNLAWYQQKPGKAPKLLIYGATNLASGVPSRFSGSGSGTDYTLTISSLQPEDFATYYCQHFWDTPYTFGQGTKVEIK",Bmax [9]: 563000 RFU; Kd [9]: 0.386 nM
,,,,0.613 nM,6830 RFU,"Antibody h#2D1 (antibody, V domains shown, Humanized variant of 11B12) VH: EVQLVESGGGLVQPGGSLRLSCAVSGYSITSGYYWNWVRQAPGKGLEWVAYISYDGNNNYNPSLKNRFTISRDTSKNTVYLQMNSLRAEDTAVYYCVREESTMITTAWFAYWGQGTLVTVSS VL: DIQMTQSPSSLSASVGDRVTITCRASENIYSNLAWYQQKPGKAPKLLIYGATNLASGVPSRFSGSGSGTDYTLTISSLQPEDFATYYCQHFWDTPYTFGQGTKVEIK",Bmax [9]: 565000 RFU; Kd [9]: 0.412 nM
,,,,0.391 nM,7660 RFU,"Antibody h#2G6 (antibody, V domains shown, Humanized variant of 11B12) VH: EVQLVESGGGLVQPGGSLRLSCAVSGYSITSGYYWNWVRQAPGKGLEWVAYISYDGNNNYNPSLKNRFTISRDASKNTFYLQMNSLRAEDTAVYYCAREESTMITTAWFAYWGQGTLVTVSS VL: DIQMTQSPSSLSASVGDRVTITCRASENIYSNLAWYQQKPGKAPKLLIYGATNLASGVPSRFSGSGSGTDYTLTISSLQPEDFATYYCQHFWDTPYTFGQGTKVEIK",Bmax [9]: 582000 RFU; Kd [9]: 0.292 nM
